For one molecule, peptide concentration results are on record in patent US20090068214A1.

The target of the assay is HLA-A2 on T2 cells, P30376.

B1: HPV 16 E2 69-77 peptide (…) (peptide)
peptide: ALQAIELQL
modifications: not checked
Turning to B1, the peptide concentration at fluorescence index (FI) 0.5 is 50 µM.
